Results reported in paper PMC8366792.

Key:
[1] = target: CH848 10.17DT SOSIPv4.1 trimer (HIV-1 (CH848 10.17) | HIV-1 (BG505)) (UniProt Q2N0S6); assay: SEC
[2] = target: CH848 10.17DT DS SOSIP trimer (HIV-1 (CH848 10.17) | HIV-1 (BG505)) (UniProt Q2N0S6); assay: SEC

Substance	percent of the total peak that is trimer [1] [%]	percent of the total peak that is trimer [2] [%]	stoichiometry N [2]
CH848 10.17DT SOSIPv4.1 trimer (from UniProt Q2N0S6 509-661) (domain or fragment)	62		
CH848 10.17DT DS SOSIP trimer (from UniProt Q2N0S6 509-661) (domain or fragment)		65	3
